Tests used:
[1] = target: T1, VEGF (human, UniProt P15692 27-191); assay: Biacore
T1 chain: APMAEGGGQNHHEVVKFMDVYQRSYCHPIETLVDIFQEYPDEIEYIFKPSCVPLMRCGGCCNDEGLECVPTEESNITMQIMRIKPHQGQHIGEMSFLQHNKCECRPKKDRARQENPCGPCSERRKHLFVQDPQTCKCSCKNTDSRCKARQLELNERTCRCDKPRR

[2] = target: IL6 (human, UniProt P05231 30-212); assay: Biacore
[3] = target: T2, human IL6 (human, UniProt P05231 30-212); assay: Biacore; captured on GMCSF
[4] = target: T2, human IL6; assay: Biacore; captured on anti-LC
[5] = target: MBP; assay: Biacore
[6] = target: GST; assay: Biacore
[7] = target: T2, human IL6; assay: Biacore

T2 sequence (P05231 30-212): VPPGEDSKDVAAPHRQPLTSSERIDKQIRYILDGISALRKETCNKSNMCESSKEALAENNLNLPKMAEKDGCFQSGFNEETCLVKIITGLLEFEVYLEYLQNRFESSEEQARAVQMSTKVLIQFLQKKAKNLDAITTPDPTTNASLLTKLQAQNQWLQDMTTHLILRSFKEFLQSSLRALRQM
Sequence of IL6 (P05231 30-212): as above

B1: IL6 P (Fab, V domains shown)
VH: EVQLVESGGGLVQPGGSLRLSCAASGFTFSSYAMSWIRQAPGKGLEWIGQISGSGGSTVYNYNVLGRFTISRDNSKNTLYLQMNSLRAEDTAVYYCARDSGYFDIWGQGTLVTVSS
VL: NIQKTQSPSSLSASVGDRVTITCRALWHISSYLAWYQQKPGKAPKLLIYAASSLYSGVPSRFSGSGSGTDFTLTISSLQPEDFATYYCQQYSGLPYTFGQGTKVEIKR
koff [1]: 0.00204 s⁻¹
koff [2]: 0.00413 s⁻¹

B2: GH6L (bispecific antibody, V domains shown)
VH: WVQLVESGGGLVQPGGSLRLSCAAKGALFSTYAMSWIRQAPGKGLEWIGQISGSGGSTVYNYNVLGRFTISRDNSKNTLYLQMNSLRAEDTAVYYCARDSGYFDIWGQGTLVTVSS
VL: ATQRTQSPSSLSASVGDRVTITCRALWHISSYLAWYQQKPGKAPKLLIYAASWLYWDVPSRFSGSGSGTDFTLTISSLQPEDFATYYCQQYSGLPYTFGQGTKVEIK
Kd [3]: 18.7 nM
Kd [4]: 30.4 nM

B3: Fab DT3 (bispecific antibody, V domains shown)
VH: WVQLVESGGGLVQPGGSLRLSCAARGFPFSHYAMSWIRQAPGKGLEWIGQISGSGGSTWYNHDIKGRFTISRDNSKNTLYLQMNSLRAEDTAVYYCARDSGYFDWWGQGTLVTVSS
VL: GIQMTQSPSSLSASVGDRVTITCRARWYISSYLAWYQQKPGKAPKLLIFAASRLILNVPSRFSGSGSGKDFTLTISSLQPEDFATYYCQQYSELPYTFGQGTKVEIK
Kd [5]: 313 nM
Kd [6]: 17 nM

B4: VH6L (bispecific antibody, V domains shown)
VH: YYQLVESGGGLVQPGGSLRLSCAADGFLFSGYAMSWIRQAPGKGLEWIGQISGSGGSTVYNYNVLGRFTISRDNSKNTLYLQMNSLRAEDTAVYYCARDTGYFDHWGQGTLVTVSS
VL: NIQKTQSPSSLSASVGDRVTITCRALWHISSYLAWYQQKPGKAPKLLIYAASHLHYGVPSRFSGSGSGTDFTLTISSLQPEDFATYYCQQYSGLPYTFGQGTKVEIK
koff [7]: 0.00472 s⁻¹

— US20140206846A1 (published 2014)
